Data reported in the supplement of paper PMC7877785.
± gives the uncertainty stated by the source.

Assay: self-splicing fitness, log relative to wild type (ln ratio); higher = more splicing; Tetrahymena group I intron in knt gene, E. coli kanamycin selection, DiMSum; sequences stand for … in CUCUCU…GGAGGGAAAAGUUAUCAGGCAUGCACCUGGUAGCUAGUCUUUAAACCAAUAGAUUGCAUCGGUUUAAAAGGCAAGACCGUCAAAUUGCGGGAAAGGGGUCAACAGCCGUUCAGUACCAAGUCUCAGGGGAAACUUUGAGAUGGCCUUGCAAAGGGUAUGGUAAUAAGCUGACGGACAUGGUCCUAACCACGCAGCCAAGUCCUAAGUCAACAGAUCUUCUGUUGAUAUGGAUGCAGUUCACAGACUAAAUGUCGGUCGGGGAAGAUGUAUUCUUCUCAUAAGAUAUAGUCGGACCUCUCCUUAAUGGGAGCUAGCGGAUGAAGUGAUGCAACACUGGAGCCGCUGGGAACUAAUUUGUAUGCGAAAGUAUAUUGAUUAGUUUUGGAGUACUCGUGGUCG
How it was run: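 A randomised library covering all eight P1ex-region intron nucleotides was built with the intron in the knt kanamycin-resistance gene on pET-22b(+) and held in E. coli BL21(DE3). Cells were grown overnight at 37°C or 30°C on LB agar, with or without 25 μg/mL kanamycin, plus 100 μg/mL carbenicillin, 50 μM IPTG and 0.2% rhamnose, and pooled colonies were amplicon-sequenced on an Illumina HiSeq 2500. DiMSum fitness is the error-weighted combination of wild-type-normalised replicate fold changes, kanamycin versus none.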

## CCAGAGCAAUAUUACGCGAA
30 °C
  self-splicing fitness (ln): -4.06 ± 0.4
37 °C
  self-splicing fitness (ln): -2.15 ± 0.29

## GGAAAGCAAUAUUACGAGCA
30 °C
  self-splicing fitness (ln): -1.01 ± 0.078
37 °C
  self-splicing fitness (ln): -0.54 ± 0.083

## UCCCAGCAAUAUUACGCUCA
30 °C
  self-splicing fitness (ln): -1.48 ± 0.11
37 °C
  self-splicing fitness (ln): -0.496 ± 0.11

## UGUCAGCAAUAUUACGUCUA
30 °C
  self-splicing fitness (ln): 0.314 ± 0.096
37 °C
  self-splicing fitness (ln): -0.489 ± 0.1

## UGGGAGCAAUAUUACGUACU
37 °C
  self-splicing fitness (ln): -2.02 ± 0.33

## GGUAAGCAAUAUUACGGGAG
37 °C
  self-splicing fitness (ln): -2.88 ± 0.34

## AUCUAGCAAUAUUACGUCUG
30 °C
  self-splicing fitness (ln): -1.72 ± 0.14
37 °C
  self-splicing fitness (ln): -0.625 ± 0.14

## AUAGAGCAAUAUUACGCGUA
30 °C
  self-splicing fitness (ln): -0.662 ± 0.1
37 °C
  self-splicing fitness (ln): -0.524 ± 0.13

## UCACAGCAAUAUUACGAUUC
30 °C
  self-splicing fitness (ln): -3.61 ± 0.16
37 °C
  self-splicing fitness (ln): -3.05 ± 0.18

## AUCCAGCAAUAUUACGUCUA
30 °C
  self-splicing fitness (ln): -0.908 ± 0.066
37 °C
  self-splicing fitness (ln): -0.497 ± 0.07

## AUGGAGCAAUAUUACGUCAG
30 °C
  self-splicing fitness (ln): -2.47 ± 0.32
37 °C
  self-splicing fitness (ln): -1.41 ± 0.44

## AGAAAGCAAUAUUACGGCGU
30 °C
  self-splicing fitness (ln): 0.239 ± 0.073
37 °C
  self-splicing fitness (ln): 0.133 ± 0.091

## CACGAGCAAUAUUACGCUGG
30 °C
  self-splicing fitness (ln): -3.66 ± 0.16
37 °C
  self-splicing fitness (ln): -2.32 ± 0.16

## GAAAAGCAAUAUUACGGUUG
30 °C
  self-splicing fitness (ln): -2.39 ± 0.088
37 °C
  self-splicing fitness (ln): -1.42 ± 0.12

## CCAGAGCAAUAUUACGAUAA
30 °C
  self-splicing fitness (ln): -3.17 ± 0.29
37 °C
  self-splicing fitness (ln): -2.04 ± 0.2

## GAAAAGCAAUAUUACGUCGA
30 °C
  self-splicing fitness (ln): -1.14 ± 0.088
37 °C
  self-splicing fitness (ln): -0.0848 ± 0.12

## GGACAGCAAUAUUACGAAAU
30 °C
  self-splicing fitness (ln): -1.25 ± 0.11
37 °C
  self-splicing fitness (ln): -0.0392 ± 0.14

## CGGAAGCAAUAUUACGGCUG
30 °C
  self-splicing fitness (ln): -1.79 ± 0.094
37 °C
  self-splicing fitness (ln): -1.36 ± 0.099

## CCCUAGCAAUAUUACGUCAA
30 °C
  self-splicing fitness (ln): -3.16 ± 0.32
37 °C
  self-splicing fitness (ln): -3.46 ± 0.39

## CAUAAGCAAUAUUACGCUGA
30 °C
  self-splicing fitness (ln): -2.49 ± 0.21
37 °C
  self-splicing fitness (ln): -2.62 ± 0.28

## ACUCAGCAAUAUUACGUCCC
30 °C
  self-splicing fitness (ln): -0.969 ± 0.13
37 °C
  self-splicing fitness (ln): -0.71 ± 0.16

## AGCAAGCAAUAUUACGAAAC
30 °C
  self-splicing fitness (ln): -4.25 ± 0.25
37 °C
  self-splicing fitness (ln): -1.03 ± 0.13

## GGACAGCAAUAUUACGUAGG
30 °C
  self-splicing fitness (ln): -0.254 ± 0.053
37 °C
  self-splicing fitness (ln): -0.517 ± 0.063

## GAAUAGCAAUAUUACGGUCC
30 °C
  self-splicing fitness (ln): -2.78 ± 0.24
37 °C
  self-splicing fitness (ln): -0.862 ± 0.25

## UGUCAGCAAUAUUACGUUGC
37 °C
  self-splicing fitness (ln): -1.75 ± 0.46

## CGUUAGCAAUAUUACGGGUG
30 °C
  self-splicing fitness (ln): -0.565 ± 0.057
37 °C
  self-splicing fitness (ln): 0.0881 ± 0.071

## CGUAAGCAAUAUUACGAUGA
30 °C
  self-splicing fitness (ln): -3.44 ± 0.34

## AGGGAGCAAUAUUACGGUAA
37 °C
  self-splicing fitness (ln): -2.46 ± 0.44

## AGCAAGCAAUAUUACGGGUC
30 °C
  self-splicing fitness (ln): -2.05 ± 0.22
37 °C
  self-splicing fitness (ln): -1.82 ± 0.21

## GUAGAGCAAUAUUACGUUAA
30 °C
  self-splicing fitness (ln): -2 ± 0.17
37 °C
  self-splicing fitness (ln): -0.228 ± 0.21

## GGUAAGCAAUAUUACGUCGA
37 °C
  self-splicing fitness (ln): -0.708 ± 0.25

## GGAGAGCAAUAUUACGUAGG
30 °C
  self-splicing fitness (ln): -3.43 ± 0.25
37 °C
  self-splicing fitness (ln): -0.82 ± 0.25

## GUUAAGCAAUAUUACGAACA
30 °C
  self-splicing fitness (ln): -2.16 ± 0.29
37 °C
  self-splicing fitness (ln): -1.32 ± 0.21

## CAGAAGCAAUAUUACGCUGA
30 °C
  self-splicing fitness (ln): -2.87 ± 0.18
37 °C
  self-splicing fitness (ln): -1.98 ± 0.15

## CCAAAGCAAUAUUACGCUCA
30 °C
  self-splicing fitness (ln): -3.2 ± 0.14
37 °C
  self-splicing fitness (ln): -2.2 ± 0.16

## UCAGAGCAAUAUUACGUGAU
30 °C
  self-splicing fitness (ln): -3.03 ± 0.32
37 °C
  self-splicing fitness (ln): -2.94 ± 0.26

## AAAAAGCAAUAUUACGGAGG
30 °C
  self-splicing fitness (ln): -3.71 ± 0.21
37 °C
  self-splicing fitness (ln): -2.94 ± 0.2

## ACCCAGCAAUAUUACGGCAA
30 °C
  self-splicing fitness (ln): -0.219 ± 0.056
37 °C
  self-splicing fitness (ln): -0.263 ± 0.068

## CCAUAGCAAUAUUACGUCGU
30 °C
  self-splicing fitness (ln): -2.4 ± 0.15
37 °C
  self-splicing fitness (ln): -2.82 ± 0.23

## CUACAGCAAUAUUACGGCUC
30 °C
  self-splicing fitness (ln): -3.53 ± 0.23
37 °C
  self-splicing fitness (ln): -1.8 ± 0.31

## CCGCAGCAAUAUUACGGAAC
30 °C
  self-splicing fitness (ln): -3.52 ± 0.41
37 °C
  self-splicing fitness (ln): -3.41 ± 0.29

## AGGCAGCAAUAUUACGAUUC
30 °C
  self-splicing fitness (ln): -1.71 ± 0.13
37 °C
  self-splicing fitness (ln): -0.305 ± 0.16

## UUACAGCAAUAUUACGCGAA
30 °C
  self-splicing fitness (ln): -1.02 ± 0.12
37 °C
  self-splicing fitness (ln): -0.94 ± 0.11

## GGAAAGCAAUAUUACGGACU
30 °C
  self-splicing fitness (ln): -1.51 ± 0.27
37 °C
  self-splicing fitness (ln): -0.961 ± 0.28
